The supplement of paper PMC10724198
± gives the standard deviation of the averaged measurements.

Test system: Saccharomyces cerevisiae
Experiment: protein stability index of tFT-peptide fusion (C-terminal peptide) (PSI (0-1 scale)); higher = more stable (slower turnover)
Conditions: genetic background: wild type; temperature: 30 C
Procedure: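 Multiplexed protein stability (MPS) profiling in S. cerevisiae. Random 12-aa peptides (tFT-X12 library) are fused to the C-terminus of a sfGFP-mCherry tandem fluorescent timer, after mCherry and a GGGS linker. Cells are FACS-sorted into 8 mCherry/sfGFP bins and deep-sequenced. The protein stability index (PSI) is the read-weighted bin average, scaled from 0 (unstable) to 1 (stable). Only peptides with >10 reads are reported; cells were grown at 30 °C in SC-His with glucose.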
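Also: PSI is a weighted mean of sequencing reads over stability bins, variants kept only with over 10 reads, mCherry proximal and sfGFP distal, peptide attached via GGGS linker.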

| Sequence | protein stability index |
| --- | --- |
| CGVHESAIQPNL | 0.605 ± 0.0081 |
| CGWGVMDAVGSR | 0.685 ± 0.019 |
| CHILGSINKIKE | 0.7 ± 0.039 |
| CHRLGRTTGRIR | 0.692 ± 0.026 |
| CIGVRFVNAHEG | 0.771 ± 0.1 |
| CILPVLRGMSPA | 0.616 ± 0.011 |
| CIQRYSTAHPYH | 0.679 ± 0.06 |
| CIVSARCWRSPY | 0.609 ± 0.0072 |
| CKQIESRLLEGQ | 0.64 ± 0.024 |
| CLAPPTFAPSSL | 0.752 ± 0.081 |
| CLCLGGIWIVGG | 0.63 ± 0.027 |
| CLDRRCTSRGCI | 0.717 ± 0.03 |
| CLFSFGPLAVNI | 0.6 ± 0.0079 |
| CLGLVSLSGGAR | 0.712 ± 0.073 |
| CLGRDVENRDAW | 0.785 ± 0.078 |
| CLGSGGRVSRGA | 0.6715 ± 0.0022 |
| CLHLDQAACVGS | 0.695 ± 0.1 |
| CLIGHFFSVIFY | 0.5239 ± 0.0051 |
| CLLLPPLATFPR | 0.695 ± 0.017 |
| CLLSRGLTVSYS | 0.626 ± 0.012 |
| CLPGVVRGLSTM | 0.703 ± 0.036 |
| CLPLPAPLLAHL | 0.666 ± 0.16 |
| CLPRFLGLGGRV | 0.68 ± 0.072 |
| CLRPGAPESSIP | 0.673 ± 0.1 |
| CLRRGGAGDGAS | 0.678 ± 0.011 |
| CLSPAPLPPFFY | 0.6724 ± 0.0018 |

| Sequence | protein stability index |
| --- | --- |
| CLSYSVCPFWEA | 0.807 ± 0.0087 |
| CLTTVCHRRVRC | 0.655 ± 0.075 |
| CLVGSLTDIAWL | 0.756 ± 0.028 |
| CLVSGGRVSRGA | 0.6578 ± 0.0019 |
| CLVWGGCYWDVG | 0.6019 ± 0.0015 |
| CLWSDQLFFYFG | 0.734 ± 0.025 |
| CLYLLFGLLHVG | 0.545 ± 0.02 |
| CMFATFLFVPPL | 0.591 ± 0.014 |
| CPDFSSSLTFFL | 0.706 ± 0.014 |
| CPFPSPTPPPPC | 0.726 ± 0.095 |
| CPGTSLVLPPLL | 0.688 ± 0.019 |
| CPIASSRHSVGL | 0.823 ± 0.12 |
| CPIKSLLPGSFA | 0.693 ± 0.03 |
| CPLPGSRHLAPV | 0.742 ± 0.068 |
| CPLPPSTPPLRL | 0.709 ± 0.0098 |
| CPPARLLPHPPA | 0.733 ± 0.013 |
| CPPCPSAPPPLP | 0.752 ± 0.07 |
| CPPFLTPRLAPA | 0.778 ± 0.2 |
| CPPPPPPPRPPP | 0.639 ± 0.0095 |
| CPSPPPIPLTLS | 0.6221 ± 0.001 |
| CQDDGTAKRHKG | 0.676 ± 0.061 |
| CQFPSLPLPSFM | 0.66 ± 0.032 |
| CRAPSPRPWRPH | 0.708 ± 0.062 |
| CRFLDVSSWILI | 0.707 ± 0.065 |
| CRGILVGVWRCG | 0.5856 ± 0.0014 |
| CRGSGGRVVLVG | 0.674 ± 0.041 |

| Sequence | protein stability index |
| --- | --- |
| CRKPRPLSFPLV | 0.701 ± 0.043 |
| CRRSCPRLTVTR | 0.746 ± 0.015 |
| CRSLSAPLPGSF | 0.657 ± 0.021 |
| CRTFSALVDRFT | 0.687 ± 0.046 |
| CRTPQICASCLC | 0.59 ± 0.015 |
| CRTSRSSSLPPY | 0.7218 ± 0.0054 |
| CRVNSVRPVYPS | 0.7079 ± 0.0049 |
| CSEGSSFVDKRG | 0.594 ± 0.039 |
| CSERGQVCAVVY | 0.553 ± 0.066 |
| CSFCVLGPGLHL | 0.672 ± 0.047 |
| CSLRSSGLGFKQ | 0.62 ± 0.072 |
| CSPSYTCRIISF | 0.7076 ± 0.006 |
| CSRFGRLCYNGE | 0.618 ± 0.023 |
| CSRPSLPIYYCS | 0.581 ± 0.028 |
| CSSACPPPPPAT | 0.733 ± 0.014 |
| CSVCPGYLFGCA | 0.601 ± 0.025 |
| CSVPPPLPPTTF | 0.683 ± 0.073 |
| CTFCLGSATVRT | 0.702 ± 0.04 |
| CTGLEGGGLPFR | 0.636 ± 0.12 |
| CTGVFTGRCEGG | 0.653 ± 0.028 |
| CTISHSGHSGST | 0.706 ± 0.058 |
| CTQCCSGARLFM | 0.672 ± 0.081 |
| CTRHNGTCRVKA | 0.658 ± 0.017 |
| CTRRRLLVPRVK | 0.599 ± 0.028 |
| CTVGWNLVFQFG | 0.641 ± 0.08 |
| CVAACSGHAAVG | 0.692 ± 0.017 |

| Sequence | protein stability index |
| --- | --- |
| CVAAISGESLLR | 0.667 ± 0.021 |
| CVDGLFCCLVFW | 0.571 ± 0.028 |
| CVFLGRMSFLAF | 0.602 ± 0.03 |
| CVGTDVWQASSR | 0.6 ± 0.057 |
| CVIGRDGTDLWV | 0.685 ± 0.0089 |
| CVPYLGEFTRNG | 0.691 ± 0.038 |
| CVVAISGLSHFL | 0.623 ± 0.015 |
| CVWCSGRSPCYV | 0.634 ± 0.047 |
| CVWKWFSFSGGG | 0.69 ± 0.021 |
| CWGGGGLWLLEV | 0.515 ± 0.012 |
| CWGGWGLWLLEV | 0.516 ± 0.023 |
| CWGLRVMGGTGR | 0.702 ± 0.013 |
| CWSCLRGYRFQT | 0.664 ± 0.028 |
| CYIFFFSRELFY | 0.5685 ± 0.0045 |
| DAGVDVGVGTHD | 0.605 ± 0.041 |
| DAGWTRGGEGVW | 0.739 ± 0.032 |
| DARTLTECTCRG | 0.648 ± 0.072 |
| DASLTSGVARST | 0.67 ± 0.042 |
| DAVRRNSAWFSF | 0.677 ± 0.025 |
| DAWRAGESTEGG | 0.71 ± 0.027 |
| DCLSVWCSIPGA | 0.775 ± 0.086 |
| DCRELCQSEVMG | 0.643 ± 0.1 |
| DCRPNIRSRVSG | 0.785 ± 0.18 |
| DCSCIYGHRVVV | 0.6466 ± 0.0038 |
| DCVRMLREGAGW | 0.721 ± 0.079 |
| DDFSHVEVFERV | 0.7 ± 0.062 |

| Sequence | protein stability index |
| --- | --- |
| DDGGQPKVLLCV | 0.6688 ± 0.0011 |
| DDGRVSLGEQSG | 0.673 ± 0.036 |
| DEFCSHSLAGSS | 0.649 ± 0.024 |
| DEGFSRSGLLLK | 0.6921 ± 0.003 |
| DEPGTEGAKPWR | 0.727 ± 0.074 |
| DETELTQRTKRV | 0.656 ± 0.017 |
| DFEVGPMGGFRC | 0.674 ± 0.057 |
| DFGYSLRIIRSE | 0.746 ± 0.0099 |
| DFLDPLQDEWPC | 0.805 ± 0.039 |
| DFPIEEILGLVG | 0.65 ± 0.05 |
| DFQRPGSFVFNG | 0.658 ± 0.048 |
| DFRAGPLPCRPP | 0.6952 ± 0.0041 |
| DGCRCQSMSKIS | 0.553 ± 0.18 |
| DGGAGGLGLLGG | 0.651 ± 0.0081 |
| DGGAGWLGLLGG | 0.713 ± 0.034 |
| DGGALGVKGCDR | 0.694 ± 0.054 |
| DGGVGGGAPRVR | 0.78 ± 0.14 |
| DGGVPGVMVVGE | 0.644 ± 0.024 |
| DGLGLLVGAGVG | 0.623 ± 0.085 |
| DGRTYGHYKVVA | 0.697 ± 0.027 |
| DGSIGASPGRGL | 0.695 ± 0.015 |
| DGSKRDWFYNSA | 0.725 ± 0.059 |
| DGVRGDVVTGYL | 0.7131 ± 0.0057 |
| DHLQGRPDITDI | 0.72 ± 0.09 |
| DIAYPRITDSRC | 0.714 ± 0.045 |
| DIQINENIYKNK | 0.687 ± 0.048 |

| Sequence | protein stability index |
| --- | --- |
| DISSSILEIFTS | 0.7031 ± 0.0032 |
| DKERRSKNRERR | 0.698 ± 0.07 |
| DKKHRAPGIKIV | 0.5008 ± 0.0018 |
| DKKPVQVIIIRK | 0.667 ± 0.1 |
| DKNRNKKKKYER | 0.641 ± 0.038 |
| DLGIFVSQQIEV | 0.6065 ± 0.0048 |
| DLIYRLHTANWR | 0.809 ± 0.034 |
| DLLTRAYPWPAE | 0.692 ± 0.024 |
| DLRHLLVPVPRI | 0.7066 ± 0.0022 |
| DLSCCVFLCLFF | 0.513 ± 0.044 |
| DLSLQSLRSPIT | 0.672 ± 0.022 |
| DLSNVITKMFVI | 0.6542 ± 0.0036 |
| DLTITFYKSGQL | 0.715 ± 0.032 |
| DLVLVSSQMPFA | 0.683 ± 0.039 |
| DMGGLKACRGVG | 0.5695 ± 0.0028 |
| DMTCSMEQHEDN | 0.663 ± 0.019 |
| DMTVICDVAGQT | 0.652 ± 0.019 |
| DNAFATAYWIVV | 0.647 ± 0.054 |
| DNCIANLESGSL | 0.691 ± 0.008 |
| DNHGWKVEGRLL | 0.686 ± 0.015 |
| DNKGKDEESERR | 0.709 ± 0.038 |
| DPAASNTTTRRL | 0.686 ± 0.064 |
| DPAKRTLTRSRR | 0.673 ± 0.0079 |
| DPARNDTTTETI | 0.666 ± 0.027 |
| DPDPNHATGKIC | 0.616 ± 0.014 |
